# Results as given in the RNAGym collection of RNA variant scans (doi:10.7554/elife.90254).
# B1: OR4K15 (parent)
# chain: GUUAACGGUCAUAGGCCAUGGAAACUAGGAGCACCAUUUCGCUGCCAGUGAAGAAAUGAACAAAGAAAAUCUGGGCCAGGCAGGCAUCAAAAGAAAUAGUCUUGCGCUCAACCAGAAAGUCUGUAAUCAUUUUAAGGGUA
# Variants of: B1
# Assay: self-cleavage, relative activity (ratio to wild type); higher = more cleavage; in vitro, sequencing; the parent is a self-cleaving ribozyme
row,Variant,self-cleavage
1,A60G A96G,1.47
2,A60G A96U,1.96
3,A60U G83A,1.65
4,A62U A110U,1.27
5,A60C A69G,2
6,A62G U120A,1.1
7,G58A U139C,0.57
8,A60G A86U,1.44
9,A60G A78G,0.23
10,A59U U127G,1.12
11,A59U U127C,0.28
12,A60G A111U,0.11
13,A60G A111G,0.03
14,A62G A64G,0.94
15,A60C U72C,0.16
16,A60U A95G,1.6
17,A60G U127A,1.87
18,A60G U127C,0.93
19,A60G U127G,1.52
20,C61U G115A,0.08
21,A62G U102A,1.14
22,A59G A114C,0.03
23,A59G A126U,1.27
24,A60U A67G,2.09

row,Variant,self-cleavage
1,A59U A96U,0.97
2,A62C A135G,1.24
3,A59G U70C,0.84
4,A59G U70A,0.56
5,A60G A91G,0.99
6,A60G A91U,1.31
7,A60G C71U,0.1
8,A62C A63G,1.55
9,A62U A91G,0.94
10,A59G U87C,1.19
11,A59G U87A,1.11
12,A59G U87G,0.3
13,A60U A62G,1.72
14,C61U A116G,0.39
15,A62G G74A,0.24
16,G58U G106A,0.01
17,A60G A110G,0.13
18,A60G A110U,1.3
19,A62G A69G,0.68
20,A62G A69U,1.87
21,A60G U72A,0.17
22,A60G U72C,0.17
23,A62G A90G,0.54
24,A62G A90U,0.76

row,Variant,self-cleavage
1,A60C A111G,0
2,A59G A95G,1.68
3,C61G A62U,1.87
4,A62U A111G,0.02
5,A62G U72A,0.18
6,A62G U72G,0.22
7,A59U U102C,1.23
8,A62U,1.53
9,A62G,1.23
10,A62C,1.64
11,A62G C85U,0.63
12,A60G U131C,0.15
13,C61U A78U,0.43
14,A59G A89G,1.09
15,A60C A63G,2.15
16,A60U A117G,1.84
17,A60G A68U,1.38
18,A60G A68G,1.31
19,C61U A82G,0.28
20,A60U U87A,1.61
21,A60U U87C,1.43
22,A60G A69G,0.19
23,A59C U102C,1.51
24,A59G A134G,0.34

row,Variant,self-cleavage
1,A59G A134U,1.94
2,A59G U108C,0.02
3,A59G U108A,0.01
4,A59G A91G,0.8
5,A59U U103G,0.04
6,C61U U132C,1.89
7,A62G U100A,1.12
8,A62G U100C,2.17
9,A62G A63U,1.61
10,A59U A92G,0.79
11,A59U U100G,2.13
12,A59U U100C,2.73
13,A59U U100A,0.74
14,G58A A140G,1.85
15,G58U A110G,0.11
16,A59G A66G,1.15
17,A59G A66U,1.75
18,A60G A118C,0.74
19,A60G A118G,1.07
20,A60G A118U,0.79
21,A60G U102A,0.99
22,A62G A68G,1.12
23,A60G A134G,0.69
24,A59U U108C,0.02

row,Variant,self-cleavage
1,A60U A64G,0.65
2,A62G C105U,0.14
3,A60G A140G,1.21
4,A62G A116U,0.35
5,A60C U122C,1.62
6,A62G U132A,1.9
7,G58A U103C,1.09
8,A59G U130G,1.62
9,A59G U130C,1.52
10,A62G A96G,1.53
11,C61U A98G,0.45
12,A60U U103C,0.16
13,C61U A94G,1.63
14,A60G C81U,0.21
15,G58U A67U,2.46
16,G58U A67G,0.88
17,A62U A118G,1.9
18,A62G A86U,2.08
19,G58U A90G,1.25
20,A59C U132C,1.64
21,A59U G137A,2.05
22,A59U G137U,2.15
23,A59G A64U,0.74
24,A59G A64G,1.37

row,Variant,self-cleavage
1,A60U U102C,2.8
2,A59C U127C,1.18
3,A62G A126U,1.6
4,A62G A126G,2.05
5,A62G A126C,0.62
6,A60G U130C,1.07
7,A60G U130G,1.18
8,A60G G136C,0.72
9,A60G G115A,0.04
10,G58U A89U,1.46
11,A62G A91U,1.61
12,G58U A98G,0.34
13,A59U A78U,0.31
14,A59U A78G,0.27
15,A60U A69G,1.51
16,A62G G83A,0.99
17,A62C U97A,1.86
18,A62G A117G,1.43
19,A62G C128U,1.13
20,A62G U127A,1.79
21,A59U U124C,0.69
22,A59U U124A,0.51
23,A60G A135G,1.71
24,A59G U72A,0.05

row,Variant,self-cleavage
1,A59U A90C,1.63
2,A62G U131C,1.29
3,A60U A116G,1.37
4,A60G A98U,2.21
5,A59U A94G,1.02
6,A59G C105U,0.17
7,A60G A92G,0.87
8,A59U C109U,0.43
9,A60G A62U,1.51
10,A60G A62G,1
11,A60G U70A,1.3
12,A59G A111C,0.03
13,A59G A111G,0.02
14,A59U A134G,1.02
15,A59G C71U,0.22
16,A60G A67C,0.77
17,A60G A67U,2.01
18,A59C U103C,0.57
19,A60C U100A,0.68
20,A62C A78U,0.46
21,C61U U133C,1.21
22,A60U G79U,0.08
23,A59G C77U,1.7
